How the values were obtained:
[1] = target: T1, mature growth/differentiation factor 8 (GDF8) (human) (UniProt O14793)
T1 sequence: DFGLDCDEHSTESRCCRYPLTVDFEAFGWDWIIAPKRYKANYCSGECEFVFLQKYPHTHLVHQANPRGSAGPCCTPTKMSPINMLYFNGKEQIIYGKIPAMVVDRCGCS

[2] = target: T2, mature growth/differentiation factor 11 (GDF11) (human) (UniProt O95390)
T2 sequence: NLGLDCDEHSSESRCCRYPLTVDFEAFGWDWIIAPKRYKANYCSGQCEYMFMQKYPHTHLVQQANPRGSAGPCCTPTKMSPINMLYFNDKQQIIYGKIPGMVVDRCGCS

[3] = target: T3, mature growth/differentiation factor 8 (GDF8) (human, UniProt O14793 267-375); experiment: cell-based or functional assay
T3 sequence (looked up): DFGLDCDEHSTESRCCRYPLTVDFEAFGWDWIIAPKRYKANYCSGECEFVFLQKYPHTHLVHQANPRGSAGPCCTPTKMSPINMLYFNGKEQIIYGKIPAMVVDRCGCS

[4] = target: T4, mature growth/differentiation factor 11 (GDF11) (human, UniProt O95390 299-407); experiment: cell-based or functional assay
T4 sequence (looked up): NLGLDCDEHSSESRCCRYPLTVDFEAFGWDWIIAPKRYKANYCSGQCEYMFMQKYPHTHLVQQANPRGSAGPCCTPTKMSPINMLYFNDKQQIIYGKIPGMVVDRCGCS

[5] = target: T4, mature growth/differentiation factor 11 …; experiment: cell-based or functional assay; remark: listed apart in the source
[6] = target: T3, mature growth/differentiation factor 8 …; experiment: cell-based or functional assay; remark: listed apart in the source
[7] = target: T4, mature growth/differentiation factor 11 …; experiment: cell-based or functional assay; remark: listed apart in the source

Binder | IC50 of inhibition of 0.62 nM GDF8, (CAGA)12 luciferase reporter in HEK293 cells [1] [nM] | IC50 of inhibition of 0.62 nM GDF11, (CAGA)12 luciferase reporter in HEK293 cells [2] [nM] | IC50 of inhibition of 0.62 nM GDF8 by the soluble receptor, (CAGA)12 luciferase reporter in HEK293 cells [3] [nM] | IC50 of inhibition of 0.62 nM GDF11 by the soluble receptor, (CAGA)12 luciferase reporter in HEK293 cells [4] [nM] | further results
GASP2 (natural protein) AGLLPGLGSHPGVCPNQLSPNLWVDAQSTCERECSRDQDCAAAEKCCINVCGLHSCVAARFPGSPAAPTTAASCEGFVCPQQGSDCDIWDGQPVCRCRDRCEKEPSFTCASDGLTYYNRCYMDAEACLRGLHLHIVPCKHVLSWPPSSPGPPETTARPTPGAAPVPPALYSSPSPQAVQVGGTASLHCDVSGRPPPAVTWEKQSHQRENLIMRPDQMYGNVVVTSIGQLVLYNARPEDAGLYTCTARNAAGLLRADFPLSVVQREPARDAAPSIPAPAECLPDVQACTGPTSPHLVLWHYDPQRGGCMTFPARGCDGAARGFETYEACQQACARGPGDACVLPAVQGPCRGWEPRWAYSPLLQQCHPFVYGGCEGNGNNFHSRESCEDACPVPRTPPCRACRLRSKLALSLCRSDFAIVGRLTEVLEEPEAAGGIARVALEDVLKDDKMGLKFLGTKYLEVTLSGMDWACPCPNMTAGDGPLVIMGEVRDGVAVLDAGSYVRAASEKRVKKILELLEKQACELLNRFQD | 4.1 | 18.3 | – | – | –
growth/differentiation factor-associated serum protein 1 (GASP1) (natural protein) LPPIRYSHAGICPNDMNPNLWVDAQSTCRRECETDQECETYEKCCPNVCGTKSCVAARYMDVKGKKGPVGMPKEATCDHFMCLQQGSECDIWDGQPVCKCKDRCEKEPSFTCASDGLTYYNRCYMDAEACSKGITLAVVTCRYHFTWPNTSPPPPETTMHPTTASPETPELDMAAPALLNNPVHQSVTMGETVSFLCDVVGRPRPEITWEKQLEDRENVVMRPNHVRGNVVVTNIAQLVIYNAQLQDAGIYTCTARNVAGVLRADFPLSVVRGHQAAATSESSPNGTAFPAAECLKPPDSEDCGEEQTRWHFDAQANNCLTFTFGHCHRNLNHFETYEACMLACMSGPLAACSLPALQGPCKAYAPRWAYNSQTGQCQSFVYGGCEGNGNNFESREACEESCPFPRGNQRCRACKPRQKLVTSFCRSDFVILGRVSELTEEPDSGRALVTVDEVLKDEKMGLKFLGQEPLEVTLLHVDWACPCPNVTVSEMPLIIMGEVDGGMAMLRPDSFVGASSARRVRKLREVMHKKTCDVLKEFLGLH | 0.2 | 0.3 | – | – | –
follistatin-like 3 (FSTL3) (natural protein) MGSGNPAPGGVCWLQQGQEATCSLVLQTDVTRAECCASGNIDTAWSNLTHPGNKINLLGFLGLVHCLPCKDSCDGVECGPGKACRMLGGRPRCECAPDCSGLPARLQVCGSDGATYRDECELRAARCRGHPDLSVMYRGRCRKSCEHVVCPRPQSCVVDQTGSAHCVVCRAAPCPVPSSPGQELCGNNNVTYISSCHMRQATCFLGRSIGVRHAGSCAGTPEEPPGGESAEEEENFV | 1.2 | 4 | – | – | –
follistatin 288 (FS288) (natural protein, UniProt P19883-2 30-317, looked up) GNCWLRQAKNGRCQVLYKTELSKEECCSTGRLSTSWTEEDVNDNTLFKWMIFNGGAPNCIPCKETCENVDCGPGKKCRMNKKNKPRCVCAPDCSNITWKGPVCGLDGKTYRNECALLKARCKEQPELEVQYQGRCKKTCRDVFCPGSSTCVVDQTNNAYCVTCNRICPEPASSEQYLCGNDGVTYSSACHLRKATCLLGRSIGLAYEGKCIKAKSCEDIQCTGGKKCLWDFKVGRGRCSLCDELCPDSKSDEPVCASDNATYASECAMKEAACSSGVLLEVKHSGSCN | – | – | – | – | IC50 of inhibition of 0.62 nM GDF8, (CAGA)12 luciferase reporter in HEK293 cells [6]: 0.2 nM; IC50 of inhibition of 0.62 nM GDF11, (CAGA)12 luciferase reporter in HEK293 cells [7]: 0.3 nM

Continued, in another order:

IC50 of inhibition of 0.62 nM GDF8, (CAGA)12 luciferase reporter in HEK293 cells [1] [nM] | IC50 of inhibition of 0.62 nM GDF11, (CAGA)12 luciferase reporter in HEK293 cells [2] [nM] | IC50 of inhibition of 0.62 nM GDF8 by the soluble receptor, (CAGA)12 luciferase reporter in HEK293 cells [3] [nM] | IC50 of inhibition of 0.62 nM GDF11 by the soluble receptor, (CAGA)12 luciferase reporter in HEK293 cells [4] [nM] | Binder | further results
– | – | 12.4 | 13 | ActRIIB extracellular domain (ActRIIB-ECD) (receptor, UniProt P38445 19-137, looked up) SGRGEAETRECIYYNANWELERTNQSGLERCEGEQDKRLHCYASWRNSSGTIELVKKGCWLDDFNCYDRQECVATEENPQVYFCCCEGNFCNERFTHLPEPGGPEVTYEPPPTAPTLLT | IC50 of inhibition of 0.62 nM GDF11 by the soluble receptor, (CAGA)12 luciferase reporter in HEK293 cells (value of the text) [5]: 14 nM
– | – | 3 | 10.3 | Fc-ActRIIB-ECD (Fc fusion, UniProt Q13705 19-137, looked up) SGRGEAETRECIYYNANWELERTNQSGLERCEGEQDKRLHCYASWRNSSGTIELVKKGCWLDDFNCYDRQECVATEENPQVYFCCCEGNFCNERFTHLPEAGGPEVTYEPPPTAPTLLT | –
